Assay results reported in US7078382 (dated 2006).
Where a chain is given by its changes, count along the chain named.

B1: LK-VRB-1s* (ligand)
chain: APMAEGGGQNHHEVVKFEDVLRRSSCHPIETLVDIFQEYPDEIEYIFKPSCVPLMRCGGCCNDEGLECVPTEESNITMQIMRIKPHQGQHIGEMSFLQHNKCECRPKKD
B2: LK-VRB-3s (ligand)
chain: B1 chain with F17I, L21F, R22K
B3: LK-VRB-4s (ligand)
chain: B1 chain with F17I, L21F, R22E, S25I
B4: LK-VRB-7s* (ligand)
chain: B1 chain with L21Y, R22Q, S25Y, D63S, G65M, L66R
B5: LK-VRB-8s* (ligand)
chain: B1 chain with E18M, R22Q, S25Y, D63S, G65M, L66R
B6: LK-VRB-9s (ligand)
chain: B1 chain with E18M, L21Y, S25Y, D63S, G65M, L66R
B7: native VEGF (8-109) (ligand)
chain: GQNHHEVVKFMDVYQRSYCHPIETLVDIFQEYPDEIEYIFKPSCVPLMRCGGCCNDEGLECVPTEESNITMQIMRIKPHQGQHIGEMSFLQHNKCECRPKKD
B8: LK-VRB-2f (ligand)
chain: APMAEGGGQNHHEVVKFMDVYQRSYCHPIETLVDIFQEYPDEIEYIFKPSCVPLMRCGGCCNSEMRECVPTEESNITMQIMRIKPHQGQHIGEMSFLQHNKCECRPKKDRARQENPCGPCSERRKHLFVQDPQTCKCSCKNTDSRCKARQLELNERTCRCDKPRR
notes: also called KDR-full
B9: LK-VRB-2s* (ligand)
chain: B1 chain with E18M, L21Y, R22Q, S25Y, D63S, G65M, L66R
B10: LK-VRB-17s (ligand)
chain: B1 chain with S25Y, D63S, G65M, L66R
B11: LK-VRB-10s (ligand)
chain: B1 chain with E18M, L21Y, R22Q, D63S, G65M, L66R
B12: LK-VRB-11s (ligand)
chain: B1 chain with R22Q, S25Y, D63S, G65M, L66R
B13: LK-VRB-12s (ligand)
chain: B1 chain with L21Y, S25Y, D63S, G65M, L66R
B14: LK-VRB-13s (ligand)
chain: B1 chain with L21Y, R22Q, D63S, G65M, L66R
B15: LK-VRB-14s (ligand)
chain: B1 chain with E18M, S25Y, D63S, G65M, L66R
B16: LK-VRB-15s (ligand)
chain: B1 chain with E18M, R22Q, D63S, G65M, L66R
B17: LK-VRB-16s (ligand)
chain: B1 chain with E18M, L21Y, D63S, G65M, L66R
B18: LK-VRB-20s (ligand)
chain: B1 chain with E18M, D63S, G65M, L66R
B19: LK-VRB-21s (ligand)
chain: B1 chain with D63S
B20: LK-VRB-22s (ligand)
chain: B1 chain with G65M
B21: LK-VRB-23s (ligand)
chain: B1 chain with L66R
B22: LK-VRB-24s (ligand)
chain: B1 chain with D63S, G65M
B23: LK-VRB-25s (ligand)
chain: B1 chain with D63S, L66R
B24: LK-VRB-26s (ligand)
chain: B1 chain with G65M, L66R
B25: LK-VRB-18s (ligand)
chain: B1 chain with R22Q, D63S, G65M, L66R

Target: T1, Flt-IgG (human, UniProt P17948 27-758, limits assumed)
T1 construct: Only described as 'a chimeric Flt-human Fc molecule'; captured by rabbit F(ab')2 to human IgG Fc; also called chimeric Flt-human Fc molecule; not shown: human IgG Fc
Assay: competition ELISA, biotinylated native VEGF as tracer, Flt-IgG captured by anti-human Fc

T1 sequence (P17948 27-758 limits assumed): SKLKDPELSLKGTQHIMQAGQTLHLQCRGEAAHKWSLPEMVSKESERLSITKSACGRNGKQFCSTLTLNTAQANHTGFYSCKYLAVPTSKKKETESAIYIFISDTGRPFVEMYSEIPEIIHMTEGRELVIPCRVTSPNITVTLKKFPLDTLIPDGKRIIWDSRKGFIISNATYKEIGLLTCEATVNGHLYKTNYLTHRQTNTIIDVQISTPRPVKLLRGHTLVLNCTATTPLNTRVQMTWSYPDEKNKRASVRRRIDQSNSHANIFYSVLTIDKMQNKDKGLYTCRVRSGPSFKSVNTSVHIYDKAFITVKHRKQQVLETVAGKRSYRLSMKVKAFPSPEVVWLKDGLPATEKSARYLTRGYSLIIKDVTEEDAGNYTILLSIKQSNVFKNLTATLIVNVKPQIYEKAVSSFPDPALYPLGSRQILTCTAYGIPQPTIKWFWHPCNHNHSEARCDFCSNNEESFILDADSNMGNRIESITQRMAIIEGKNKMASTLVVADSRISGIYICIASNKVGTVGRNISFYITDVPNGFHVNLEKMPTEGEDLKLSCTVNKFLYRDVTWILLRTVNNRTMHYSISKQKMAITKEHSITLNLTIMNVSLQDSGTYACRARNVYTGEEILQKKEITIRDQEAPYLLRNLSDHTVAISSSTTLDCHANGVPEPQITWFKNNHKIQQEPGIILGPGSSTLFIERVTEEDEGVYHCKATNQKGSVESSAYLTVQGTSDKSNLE

First: B1
Second: B2
The IC50 of the first is 16-fold higher: 2700 nM for the first, 170 nM for the second.

Compared with B3, B7 is 240-fold lower in IC50: 100 nM for the first, 0.42 nM for the second. The second is the more potent here.

Binder B8 has an IC50 of 19 nM.

First: B1
Second: B2
The “Relative Binding Affinity” value of the first is higher: 6000 fold of native VEGF (8-109) for the first, 400 fold of native VEGF (8-109) for the second.

Compared with B3, B4 is higher in “Relative Binding Affinity” value: 200 fold of native VEGF (8-109) for the first, > 15000 fold of native VEGF (8-109) for the second.

Compared with B5, B6 is lower in “Relative Binding Affinity” value: > 21000 fold of native VEGF (8-109) for the first, 300 fold of native VEGF (8-109) for the second.

Target: KDR receptor on human umbilical vein endothelial cells (HUVEC) (human, UniProt P35968 20-1356)
Assay: cell-based or functional assay

Sequence of KDR receptor on human umbilical vein endothelial cells (HUVEC) (P35968 20-1356): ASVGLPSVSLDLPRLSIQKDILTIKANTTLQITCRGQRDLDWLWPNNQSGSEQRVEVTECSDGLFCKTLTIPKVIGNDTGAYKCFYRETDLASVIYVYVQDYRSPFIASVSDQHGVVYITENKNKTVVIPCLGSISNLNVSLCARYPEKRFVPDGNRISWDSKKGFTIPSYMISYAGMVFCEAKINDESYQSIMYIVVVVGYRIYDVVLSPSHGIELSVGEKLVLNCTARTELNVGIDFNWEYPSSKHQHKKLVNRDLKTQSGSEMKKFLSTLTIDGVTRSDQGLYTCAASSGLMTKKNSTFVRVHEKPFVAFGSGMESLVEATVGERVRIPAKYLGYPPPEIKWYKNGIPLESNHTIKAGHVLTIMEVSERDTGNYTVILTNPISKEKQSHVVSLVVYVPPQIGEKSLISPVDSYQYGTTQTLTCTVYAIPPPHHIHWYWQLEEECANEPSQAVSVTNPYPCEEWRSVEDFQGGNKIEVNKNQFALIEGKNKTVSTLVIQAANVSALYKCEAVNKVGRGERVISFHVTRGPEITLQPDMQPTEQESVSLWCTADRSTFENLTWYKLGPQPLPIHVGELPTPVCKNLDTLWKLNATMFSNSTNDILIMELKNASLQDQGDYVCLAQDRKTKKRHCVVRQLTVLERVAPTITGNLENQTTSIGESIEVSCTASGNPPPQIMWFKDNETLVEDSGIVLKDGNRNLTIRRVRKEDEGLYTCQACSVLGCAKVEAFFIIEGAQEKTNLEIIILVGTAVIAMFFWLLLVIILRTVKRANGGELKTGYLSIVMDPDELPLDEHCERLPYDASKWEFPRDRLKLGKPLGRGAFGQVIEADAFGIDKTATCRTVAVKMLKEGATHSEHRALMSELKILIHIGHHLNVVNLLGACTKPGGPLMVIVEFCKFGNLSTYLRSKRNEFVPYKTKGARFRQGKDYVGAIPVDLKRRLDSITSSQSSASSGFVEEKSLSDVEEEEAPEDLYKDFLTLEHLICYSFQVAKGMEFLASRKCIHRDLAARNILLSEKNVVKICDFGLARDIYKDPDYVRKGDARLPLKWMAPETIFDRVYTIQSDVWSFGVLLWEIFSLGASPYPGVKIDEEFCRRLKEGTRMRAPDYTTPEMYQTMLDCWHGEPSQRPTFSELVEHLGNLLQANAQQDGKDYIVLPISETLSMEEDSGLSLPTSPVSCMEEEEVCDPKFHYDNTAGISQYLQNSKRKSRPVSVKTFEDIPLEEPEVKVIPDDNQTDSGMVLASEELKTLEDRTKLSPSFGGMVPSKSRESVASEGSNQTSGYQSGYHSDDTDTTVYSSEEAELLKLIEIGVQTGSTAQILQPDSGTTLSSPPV

Compared with B1, B4 is 5-fold higher in “Endothelial Cell Proliferation Activity (HUVEC, 3H-thymidine), concentration” value: 0.1 nM for the first, 0.5 nM for the second.

B5 and B7 are the same in “Endothelial Cell Proliferation Activity (HUVEC, 3H-thymidine), concentration” value: 0.5 nM for the first, 0.5 nM for the second.

B9 and B8 are the same in “Endothelial Cell Proliferation Activity (HUVEC, 3H-thymidine), concentration” value: 0.05 nM for the first, 0.05 nM for the second.

Going from B1 to B4, the “Endothelial Cell Proliferation Activity (HUVEC, 3H-thymidine), ratio to native VEGF (8-109)” value rises from 0.2 fold of native VEGF (8-109) to 1 fold of native VEGF (8-109).

In the case of B5, the “Endothelial Cell Proliferation Activity (HUVEC, 3H-thymidine), ratio to native VEGF (8-109)” value is reported as 1 fold of native VEGF (8-109).

Target: KDR receptor (RIA of Example 11) (UniProt P35968 20-764, limits assumed)
Assay: RIA essentially as in Muller et al. 1997

Sequence of KDR receptor (RIA of Example 11) (P35968 20-764 limits assumed): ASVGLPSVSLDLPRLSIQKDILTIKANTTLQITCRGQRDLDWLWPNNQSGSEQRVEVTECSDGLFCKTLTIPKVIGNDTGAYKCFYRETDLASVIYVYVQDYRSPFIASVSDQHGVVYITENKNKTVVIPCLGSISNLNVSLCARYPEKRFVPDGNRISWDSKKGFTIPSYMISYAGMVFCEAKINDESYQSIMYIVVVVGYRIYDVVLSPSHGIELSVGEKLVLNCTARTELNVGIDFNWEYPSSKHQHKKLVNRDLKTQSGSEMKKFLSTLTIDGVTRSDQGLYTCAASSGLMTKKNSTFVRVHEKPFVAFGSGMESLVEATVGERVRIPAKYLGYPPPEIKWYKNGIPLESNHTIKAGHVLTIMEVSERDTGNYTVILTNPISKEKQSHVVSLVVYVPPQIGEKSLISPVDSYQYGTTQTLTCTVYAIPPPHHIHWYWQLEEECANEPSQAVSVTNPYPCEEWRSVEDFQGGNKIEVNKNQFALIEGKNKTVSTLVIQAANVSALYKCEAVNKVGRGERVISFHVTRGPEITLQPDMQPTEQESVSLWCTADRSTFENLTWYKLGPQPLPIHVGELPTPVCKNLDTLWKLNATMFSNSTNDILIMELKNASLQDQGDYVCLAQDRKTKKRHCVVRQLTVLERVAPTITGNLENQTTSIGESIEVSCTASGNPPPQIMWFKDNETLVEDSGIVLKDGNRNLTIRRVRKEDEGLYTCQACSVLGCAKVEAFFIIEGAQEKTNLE

For B1, the “Relative Binding Affinity” value was 20 fold of native VEGF 165.

Target: FLT-1 receptor (RIA of Example 11) (UniProt P17948 27-758, limits assumed)
Assay: RIA essentially as in Muller et al. 1997

Sequence of FLT-1 receptor (RIA of Example 11) (P17948 27-758 limits assumed): as the sequence (P17948 27-758 limits assumed) above

With B1 the “Relative Binding Affinity” value was 14000 fold of native VEGF 165.

Target: KDR receptor with a gD tag at the N-terminus, on CHO cells (UniProt P35968 20-1356)
Assay: cell-based or functional assay

Going from B1 to B2, the “Phosphorylation-Inducing Activity (KIRA), concentration at midpoint” value rises from 1 nM to 2 nM (2-fold).

First: B3
Second: B7
The “Phosphorylation-Inducing Activity (KIRA), concentration at midpoint” value of the first is 2-fold lower: 1 nM for the first, 2 nM for the second.

B9 was tested, and the “Phosphorylation-Inducing Activity (KIRA), concentration at midpoint” value was 2 nM.

Going from B1 to B2, the “Phosphorylation-Inducing Activity (KIRA), ratio to native VEGF (8-109)” value rises from 0.5 fold of native VEGF (8-109) to 1 fold of native VEGF (8-109).

B3 was tested, and the “Phosphorylation-Inducing Activity (KIRA), ratio to native VEGF (8-109)” value was 0.5 fold of native VEGF (8-109).

Target: T2, KDR (1-3) (UniProt P35968 20-327, limits assumed)
T2 construct: domain: KDR (1-3); Soluble KDR (1-3) at 1 ug/ml, captured on the plate by anti-KDR monoclonal antibody MAKD5; also called KDR (1-3) monomer
Assay: competition ELISA, biotinylated native VEGF (8-109) as tracer, KDR (1-3) captured by mAb MAKD5

T2 sequence (P35968 20-327 limits assumed): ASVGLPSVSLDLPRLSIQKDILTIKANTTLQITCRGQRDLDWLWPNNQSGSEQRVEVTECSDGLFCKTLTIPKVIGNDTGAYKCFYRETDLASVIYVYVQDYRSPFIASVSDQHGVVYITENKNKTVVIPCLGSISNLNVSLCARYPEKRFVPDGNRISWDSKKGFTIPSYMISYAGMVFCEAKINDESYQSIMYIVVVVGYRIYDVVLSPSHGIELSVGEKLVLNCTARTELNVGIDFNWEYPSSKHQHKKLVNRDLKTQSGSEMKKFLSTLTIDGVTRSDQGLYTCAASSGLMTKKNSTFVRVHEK

Compared with B10, B1 is 3-fold lower in IC50: 3 nM for the first, 1 nM for the second.

B2 and B3 are the same in IC50: 1 nM for the first, 1 nM for the second.

First: B4
Second: B5
The IC50 of the first is 2-fold higher: 1 nM for the first, 0.5 nM for the second.

B6 and B11 are the same in IC50: 0.5 nM for the first, 0.5 nM for the second.

First: B12
Second: B13
The IC50 of the first is 5-fold higher: 2 nM for the first, 0.4 nM for the second.

Going from B14 to B15, the IC50 falls from 14 nM to 0.5 nM (28-fold).

Going from B16 to B17, the IC50 falls from 2 nM to 0.6 nM (3.3-fold). The second is the more potent here.

Compared with B18, B19 is 1.5-fold higher in IC50: 2 nM for the first, 3 nM for the second. The first is the more potent here.

Compared with B20, B21 is 2.8-fold higher in IC50: 4 nM for the first, 11 nM for the second.

Compared with B22, B23 is 2.5-fold lower in IC50: 10 nM for the first, 4 nM for the second.

First: B24
Second: B25
The IC50 of the first is 5.7-fold lower: 23 nM for the first, 130 nM for the second.

Compared with B10, B1 is lower in “Relative Binding Affinity” value: 3 fold of native VEGF (8-109) for the first, 1 fold of native VEGF (8-109) for the second.

B2 and B3 are the same in “Relative Binding Affinity” value: 1 fold of native VEGF (8-109) for the first, 1 fold of native VEGF (8-109) for the second.

Compared with B4, B5 is lower in “Relative Binding Affinity” value: 1 fold of native VEGF (8-109) for the first, 0.5 fold of native VEGF (8-109) for the second.

B6 and B11 are the same in “Relative Binding Affinity” value: 0.5 fold of native VEGF (8-109) for the first, 0.5 fold of native VEGF (8-109) for the second.

First: B12
Second: B13
The “Relative Binding Affinity” value of the first is higher: 2 fold of native VEGF (8-109) for the first, 0.4 fold of native VEGF (8-109) for the second.

Going from B14 to B15, the “Relative Binding Affinity” value falls from 14 fold of native VEGF (8-109) to 0.5 fold of native VEGF (8-109).

First: B16
Second: B17
The “Relative Binding Affinity” value of the first is higher: 2 fold of native VEGF (8-109) for the first, 0.6 fold of native VEGF (8-109) for the second.

Going from B18 to B19, the “Relative Binding Affinity” value rises from 2 fold of native VEGF (8-109) to 3 fold of native VEGF (8-109).

Compared with B20, B21 is higher in “Relative Binding Affinity” value: 4 fold of native VEGF (8-109) for the first, 11 fold of native VEGF (8-109) for the second.

Going from B22 to B23, the “Relative Binding Affinity” value falls from 10 fold of native VEGF (8-109) to 4 fold of native VEGF (8-109).

First: B24
Second: B25
The “Relative Binding Affinity” value of the first is lower: 23 fold of native VEGF (8-109) for the first, 130 fold of native VEGF (8-109) for the second.
